Test results from patent US7560248 (WISCONSIN ALUMNI RESEARCH FOUNDATION, dated 2009).

B2: ribonuclease A (enzyme, UniProt P61823 27-150, looked up)
chain: KETAAAKFERQHMDSSTSAASSSNYCNQMMKSRNLTKDRCKPVNTFVHESLADVQAVCSQKNVACKNGQTNCYQSYSTMSITDCRETGSSKYPNCAYKTTQANKHIIVACEGNPYVPVHFDASV
notes: also called RNASE A; RNase A

Assays:
[1] = molecular target: B2; experiment: affinity chromatography on RNase A-Sepharose 4B resin
[2] = molecular target: T1, C329A human ribonuclease inhibitor (human, UniProt P13489 2-461, limits assumed); experiment: inhibition of RNase A activity, poly(C) cleavage assay
T1 construct: also called C329A hRI
T1 sequence: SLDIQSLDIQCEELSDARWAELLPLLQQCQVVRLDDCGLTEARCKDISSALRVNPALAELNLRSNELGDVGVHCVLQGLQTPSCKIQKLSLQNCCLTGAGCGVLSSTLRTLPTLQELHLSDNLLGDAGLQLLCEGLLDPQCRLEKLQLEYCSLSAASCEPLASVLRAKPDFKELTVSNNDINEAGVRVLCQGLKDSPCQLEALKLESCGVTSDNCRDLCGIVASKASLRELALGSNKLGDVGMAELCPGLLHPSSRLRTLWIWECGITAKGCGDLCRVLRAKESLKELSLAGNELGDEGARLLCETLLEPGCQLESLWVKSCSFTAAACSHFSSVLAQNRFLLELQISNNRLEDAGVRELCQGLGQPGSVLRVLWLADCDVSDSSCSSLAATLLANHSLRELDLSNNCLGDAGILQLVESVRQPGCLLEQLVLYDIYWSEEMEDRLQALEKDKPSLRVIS
Procedure: (§1) A solution (101) of 20 mM HEPES-HCl buffer, pH 7.6, containing KCl (50 mM) and RNASE A (80 nM) was added to each of the hRI solutions. The resulting mixtures were incubated at 37° C. for 5 min. The ribonucleolytic activity in each mixture was then assessed by using a spectrophotometric assay for poly(C) cleavage, as described (delCardayre et al., 1995), with [poly(C)]=37 μM. This experiment was performed at least twice with wild-type hRI and each variant.

[3] = molecular target: T2, C330A human ribonuclease inhibitor (human, UniProt P13489 2-461, limits assumed); experiment: as above
T2 construct: also called C330A hRI
T2 sequence: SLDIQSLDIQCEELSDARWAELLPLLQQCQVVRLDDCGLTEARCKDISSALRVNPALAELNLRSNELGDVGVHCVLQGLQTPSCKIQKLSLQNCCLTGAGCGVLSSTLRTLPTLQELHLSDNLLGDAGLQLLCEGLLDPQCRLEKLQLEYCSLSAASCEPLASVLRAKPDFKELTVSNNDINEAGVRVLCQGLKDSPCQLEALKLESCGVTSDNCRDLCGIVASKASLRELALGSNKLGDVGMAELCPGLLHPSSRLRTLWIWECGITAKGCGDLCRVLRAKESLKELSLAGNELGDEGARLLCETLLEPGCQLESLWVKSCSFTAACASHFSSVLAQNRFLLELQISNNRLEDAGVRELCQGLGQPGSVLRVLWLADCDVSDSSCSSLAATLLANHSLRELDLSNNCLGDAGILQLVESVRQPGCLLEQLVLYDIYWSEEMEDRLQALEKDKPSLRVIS
Procedure: as §1

[4] = molecular target: T3, C329A/C330A human ribonuclease inhibitor (human, UniProt P13489 2-461, limits assumed); experiment: affinity chromatography on RNase A-Sepharose 4B resin
T3 construct: also called C329A/C330A hRI
T3 sequence: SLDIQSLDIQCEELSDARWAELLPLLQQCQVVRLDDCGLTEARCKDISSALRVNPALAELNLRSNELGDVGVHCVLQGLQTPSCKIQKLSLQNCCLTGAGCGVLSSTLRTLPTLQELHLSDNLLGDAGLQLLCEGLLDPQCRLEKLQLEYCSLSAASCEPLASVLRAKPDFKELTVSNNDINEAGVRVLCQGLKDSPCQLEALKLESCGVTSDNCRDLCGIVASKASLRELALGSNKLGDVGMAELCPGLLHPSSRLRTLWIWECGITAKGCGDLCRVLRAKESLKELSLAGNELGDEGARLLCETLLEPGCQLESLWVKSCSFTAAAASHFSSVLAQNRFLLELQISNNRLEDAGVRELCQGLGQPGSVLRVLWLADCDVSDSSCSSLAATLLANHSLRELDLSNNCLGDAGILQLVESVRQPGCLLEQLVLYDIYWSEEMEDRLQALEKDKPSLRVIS

[5] = molecular target: T4, wild-type human ribonuclease inhibitor (human, UniProt P13489 2-461, limits assumed); experiment: as above
T4 construct: Made in E. coli from plasmid pET-RI; also called hRI; wild-type hRI
T4 sequence: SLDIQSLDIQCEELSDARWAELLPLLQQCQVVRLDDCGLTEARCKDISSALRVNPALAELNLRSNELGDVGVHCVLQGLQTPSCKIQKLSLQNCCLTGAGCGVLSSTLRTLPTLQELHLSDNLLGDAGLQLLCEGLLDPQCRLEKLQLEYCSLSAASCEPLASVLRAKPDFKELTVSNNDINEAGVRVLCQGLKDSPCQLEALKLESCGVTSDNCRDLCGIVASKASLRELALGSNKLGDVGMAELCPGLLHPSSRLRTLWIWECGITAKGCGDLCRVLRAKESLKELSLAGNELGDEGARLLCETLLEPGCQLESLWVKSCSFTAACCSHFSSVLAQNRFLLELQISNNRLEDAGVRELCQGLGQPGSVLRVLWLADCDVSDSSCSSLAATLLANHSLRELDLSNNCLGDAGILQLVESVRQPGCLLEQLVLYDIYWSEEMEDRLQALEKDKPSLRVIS

[6] = molecular target: T5, C95A/C96A human ribonuclease inhibitor (human, UniProt P13489 2-461, limits assumed); experiment: as above
T5 construct: also called C95A/C96A hRI
T5 sequence: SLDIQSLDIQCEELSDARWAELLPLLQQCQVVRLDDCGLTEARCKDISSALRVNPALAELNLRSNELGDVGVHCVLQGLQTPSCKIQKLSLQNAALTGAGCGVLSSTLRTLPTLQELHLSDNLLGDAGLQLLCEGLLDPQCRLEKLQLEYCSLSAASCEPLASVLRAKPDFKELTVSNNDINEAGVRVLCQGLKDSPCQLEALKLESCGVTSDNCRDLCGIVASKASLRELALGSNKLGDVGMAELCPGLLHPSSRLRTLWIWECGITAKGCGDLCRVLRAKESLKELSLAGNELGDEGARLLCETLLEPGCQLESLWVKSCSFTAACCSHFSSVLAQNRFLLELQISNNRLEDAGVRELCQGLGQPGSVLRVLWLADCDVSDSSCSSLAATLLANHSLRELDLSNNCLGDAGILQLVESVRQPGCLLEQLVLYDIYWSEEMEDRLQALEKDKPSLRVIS

Measured: binding result

B1: C95A/C96A/C329A/C330A human ribonuclease inhibitor (other)
chain: SLDIQSLDIQCEELSDARWAELLPLLQQCQVVRLDDCGLTEARCKDISSALRVNPALAELNLRSNELGDVGVHCVLQGLQTPSCKIQKLSLQNAALTGAGCGVLSSTLRTLPTLQELHLSDNLLGDAGLQLLCEGLLDPQCRLEKLQLEYCSLSAASCEPLASVLRAKPDFKELTVSNNDINEAGVRVLCQGLKDSPCQLEALKLESCGVTSDNCRDLCGIVASKASLRELALGSNKLGDVGMAELCPGLLHPSSRLRTLWIWECGITAKGCGDLCRVLRAKESLKELSLAGNELGDEGARLLCETLLEPGCQLESLWVKSCSFTAAAASHFSSVLAQNRFLLELQISNNRLEDAGVRELCQGLGQPGSVLRVLWLADCDVSDSSCSSLAATLLANHSLRELDLSNNCLGDAGILQLVESVRQPGCLLEQLVLYDIYWSEEMEDRLQALEKDKPSLRVIS
notes: Variant with all four substitutions; also called C95A/C96A/C329A/C330A hRI
binds: [1]

B2
not listed: [1]
binds: all other assays above
